Test results reported in patent US11938195B2, “Upconversion nanoparticle peptide conjugates” (BP InnoMed Limited, priority 2021, dated 2024).
Where no end group is shown, it is not given here. [ ]: non-standard residue; d: D form. Ahx = NCCCCCC(=O)O

Columns and labels:
[1] = test system: C666-tumor; conditions: 12.5 mg/kg i.v.; 3-36 h after injection; 980 nm
Method: (§1) In vivo upconversion luminescence imaging was performed using UCNP-P5 under 980 nm excitation (laser power: 3 W). C666-tumor-bearing and HeLa-tumor-bearing nude mice were injected with UCNP-P5 through the tail vein.
(§2) In vivo upconversion luminescence imaging: C666 and HeLa cells (10^6 cells) were inoculated subcutaneously in BALB/c female nude mice (6 weeks). When the tumors reached 0.2-0.3 cm in diameter, the C666-tumor-bearing and HeLa-tumor-bearing mice were anesthetized and injected intravenously with UCNP-P5 (150 μl, 12.5 mg/kg per mouse). The in vivo upconversion luminescence images were recorded at different time points (3 h, 6 h, 12 h, 24 h, 36 h).

[2] = test system: HeLa derived xenograft; conditions: 12.5 mg/kg i.v.; 3-36 h after injection; 980 nm
Method: as §1, §2

[3] = test system: EBV-negative HeLa cells; test: MTT cytotoxicity assay, HeLa cells; format: cell-based, human; design: unit not given here; conditions: 24 h incubation
[4] = test system: C666 derived xenografts; test: In vivo suppression assay, C666 xenograft
Text: To determine the antitumor efficacy of the new nanoprobes in vivo, their therapeutic effects were investigated in C666 and HeLa derived xenografts in BALB/c nude mice. The mice were randomly divided into five groups: (1) control (PBS), (2) UCNP, (3) UCNP-P5, (4) UCNP-P6, (5) UCNP-P7. In order to recapitulate the clinical setting of drug delivery, intravenous injection (via a tail vein) was used to deliver these agents to the immunocompromised animal.
In vivo suppression assays: EBV-positive C666 and EBV-negative HeLa cells were suspended in 200 μL of serum-free RMPI 1640 and DMEM respectively. Female BALB/c nude mice (6-8 weeks) which obtained from HKU were then injected with the cells in the right flank. Intravenous injections were performed when the average tumor volumes reached ˜200 mm^3. 0.25 mg/tumor dose of UCNP and UCNP-Pn [n=5, 6 and 7 (SEQ ID NO: 5, 6, 7)] in […] PBS buffer were injected through tail vein of mice using a 24-gauge syringe. Mice injected with the same volume of PBS buffer served as control. The body weight and tumor volumes of the mice were measured three times per week; in which the latter is calculated by (L×W^2)/2, where L and W are the longer and shorter tumor dimensions respectively. Intravenous injection at the tail vein were performed twice a week and the mice were sacrificed after 33-day experimental period; the tumors were extracted and weighed. The treatment groups are unknown to the investigators for the experimental and data analysis processes. The animal experiments conducted were approved by the Department of Health of the HKSAR Government. All animal procedures are within the Guidelines for Care and Use of Laboratory Animals of HKBU and approved by the Animal Ethics Committee of HKBU.
Hematoxylin and eosin (H&E) staining: In general, the transplanted C666 and HeLa derived tumor tissues were collected and fixed with formalin, followed by embedding in paraffin. The histologic sections were then stained with hematoxylin and eosin. Other major organ tissues (heart, liver, spleen, lung, kidney, brain) were conducted in the same procedures.

[5] = test system: LCL3 cells; test: Cellular uptake by ICP-MS, LCL3; format: cell-based
Method: (§3) Subsequently, the quantitative distribution and uptake efficiency of nanoprobes in vitro in C666, HK1, HK1-LMP1 and LCL3 cells lines were monitored and investigated by evaluating the lanthanide content originating from the nanoprobes using inductively coupled plasma mass spectrometry (ICP-MS).
(§4) After co-incubation, the cell culture medium containing the nanoprobes was removed, and the exposed cells were further rinsed with 1 mL PBS three times. After that, the cells were trypsinized and re-dispersed in 1 mL cell medium. The cells were collected by centrifugation at 1500 rpm, and the cell pellet was digested in 100 μL concentrated HNO3 (69%) at room temperature for 3 h. Then, each cell pellet in centrifuge tube was filled up to 10 mL with 1% HNO3. The cellular uptake of all the nanoprobes was recorded via an Agilent 7500 series ICP-MS instrument. All ICP experiments were performed three times, and the values of Gd concentration (ppm) obtained were calculated and averaged.

[6] = Peptide release from nanoprobes under various pH buffers (UV-vis absorbance); format: physicochemical; conditions: 24 h in buffer, 0.5 mg/mL
Text: The stability and capability of cleavage of the pH linker were also studied. […] More importantly, TEM images of UCNP-P5 at different pH buffers were observed and investigated in FIG. 1, providing direct evidence on pH-responsive peptide release from UCNP. […]

[7] = test system: LMP1-positive LCL3 cells; test: MTT cytotoxicity assay, LCL3 cells; format: cell-based; conditions: 24 h incubation
Method: The inhibitory effects of the novel nanoprobes on both EBV-infected cancer cells and non-EBV-infected cancer cells were investigated by MTT assays to test the cell viability. The cytotoxic assays were performed in EBV-positive C666 and NPC43 cells, LMP1-positive LCL3 and Raji cells, and the LMP1-positive and -negative HK1 cell pair. HK1, MRC-5 and HeLa cell lines are EBV-negative and they serve as negative controls. […] In addition, UCNP-P4, EBNA1-specific peptide coated UCNPs was included as control group, so the ability of inhibiting EBV-related cancer cells can be directly compared with UCNP-Pn [n=5, 6 and 7 (SEQ ID NO: 5, 6, 7)].
In vitro cytotoxic assays: The cytotoxicity of our nanoprobes was determined by MTT reduction assay. The cells (3×10^3 per well) were seeded onto 96-well plates and incubated overnight, followed by treatment with Pn [n=5, 6 and 7 (SEQ ID NO: 5, 6, 7)], UCNP, UCNP-Pn [n=5, 6 and 7 (SEQ ID NO: 5, 6, 7)] and UCNP-P4 individually at 37° C., 5% CO2 for 24 h in dark. The cell monolayers were rinsed with PBS and 50 μL of MTT, 3-(4,5-dimethylthiazol-2-yl)-2,5-diphenyltetrazolium bromide solution (0.5 mg mL^−1) was added per well and the cells were further incubated for 3 h at 37° C. […] The absorptions of the formazan crystal solutions at 540 nm and 690 nm were measured using a dual-wavelength Labsystem Multiskan microplate reader (Merck Eurolab).

[8] = test system: EBV- and LMP1-negative HK1 cells; test: MTT cytotoxicity assay, HK1 cells; format: cell-based; design: unit not given here; conditions: 24 h incubation
[9] = test system: C666 cells; test: Cellular uptake by ICP-MS, C666; format: cell-based
Method: as §3, §4

[10] = C666 tumor-bearing mice, 33-day experimental period

UCNP-P5: UCNP is NaGdF4:Yb^3+, Er^3+@NaGdF4 and plurality of polypeptides is Ahx-YFMVFGGRrRKGGFWLY (SEQ ID NO: 5), pH-sensitive imine linker ([Ahx]YFMVFGGR[dR]RKGGFWLY; also: conjugated to UCNP NaGdF4:Yb3+,Er3+@NaGdF4 via pH-sensitive imine linker)
Upconversion luminescence signal from the tumor site [1]: persisted even 24 h after the injection | Upconversion luminescence signal from the tumor site [2]: only observed at 3 h after the injection | IC50 in HeLa [3]: 1086 | Effect on average tumor size ([4]; 12.5 mg/kg, intravenous (tail vein), twice a week, 33 days): significantly reduce the average tumor size | Tumor uptake relative to UCNP-P6 and UCNP-P7 (ICP-MS biodistribution) ([4]; C666 tumor, Gd ions): ~3 fold | Body weight [4, 10]: slightly increased | Various organ weights [4, 10]: slightly increased | Cellular uptake (Gd amount by ICP-MS) ([5]; 50 μg/mL): largest amount of cellular uptake | Gd amount relative to UCNP-P4 ([5]; 24 h incubation): over twice | Peptide release rate ([6]; pH 5.0): 84.6% | Peptide release rate ([6]; pH 5.5): 56.1% | Peptide release rate ([6]; pH 6.0): 34.8% | Peptide release rate ([6]; pH 6.5): 20.9% | Peptide release rate ([6]; pH 7.0): 6.1% | Peptide release rate ([6]; pH 7.4): 0% | IC50 in LCL3 [7]: 19 mg/mL | IC50 in HK1 [8]: 1027 | Cellular uptake (Gd amount by ICP-MS) ([9]; 50 μg/mL): largest amount of cellular uptake | Gd amount relative to UCNP-P4 ([9]; 24 h incubation): over twice
